Reference: the MegaScale stability set (Tsuboyama et al. 2023)

B1: HEEH_KT_rd6_3632 (parent)
chain: DAEELIELVERALKEGREIILLGVRITSEEAGKWFIEWIRRFL

Variants of: B1
Assay: folding stability dG (cDNA display proteolysis); higher = more stable
Settings: PBS, room temperature

Folding stability dG [kcal/mol]: each site, then its substitutions
L8: F 3.77, Q 3.49
L13: I 3.87, N 2.88, E 2.96, A 3.14, S 3.08, R 3.1, F 3.42
L22: F 3.63, S 3.1, V 3.3, D 2.66
I20: E 3.32, K 3.01, A 2.94, D 2.84, S 3.18, Q 3.12
I39: P 2.22, H 2.73, G 2.66, L 4.03, K 2.56, F 3.46, W 3.23
R17: V 3.79, E 3.23, Q 3.27, W 3.75, M 3.6, F 3.63, Y 3.84
I19: H 2.98, G 2.96, A 3.18, K 2.94, S 2.75, E 2.63, T 2.97, P 2.74, R 2.81, Y 3.23
G23: D 3.37, Y 3.91, S 3.56, P 3.28, T 3.63, M 3.91, L 4.02, W 4.11
G16: D 3.07, L 4.32, M 4.09, F 3.97, W 4
E30: W 4.01, S 3.69, I 3.75, M 3.86, V 3.94, K 3.65, N 3.56, L 3.91, P 3.54, F 3.76
L5: Y 3.47, E 2.77, M 3.56, Q 2.83, R 2.79, V 3.23, F 3.6
S28: P 3.5, D 3.63, E 3.23, T 3.71, C 3.83, Q 3.13, G 3.83
W38: Y 3.37, N 2.8, S 2.71, I 3.2, F 3.65, R 2.89, C 3.94
F42: G 3.06, L 3.73, Q 3.29, R 3.29, E 2.91, W 4.07
A12: N 3.13, E 3.09, I 3.73, R 3.17, T 3.3, H 3.35, S 3.31, P 2.88, Y 3.33, K 3.08, L 3.74
D1: N 3.96, K 4.04, A 3.97, R 4.12, Q 3.93, I 4.2, G 3.9, H 4.04
I36: G 2.92, L 3.52, T 3.09, Q 3.11, R 3.17, P 2.59, F 3.44, E 2.97
K14: S 3.62, Y 3.31, P 3.27, T 3.42, H 3.49, F 3.39
I26: V 3.29, R 3.38, L 3.37, D 2.97, P 3.18, H 3.09, Q 3.21, S 3.07
E15: H 3.54, W 3.95, K 3.45, D 3.7, I 3.62, T 3.48, V 3.57
E18: N 3.69, I 4.02, D 3.44, A 3.74, L 3.83, Q 3.74, F 3.87, W 3.78, G 3.58, K 3.55
L21: T 2.78, N 3.01, P 2.6, S 3.12, K 2.98, I 3.83, Y 3.28, D 2.71, M 3.36
A2: D 3.4, T 3.62, V 4.05, W 4.53, S 3.42, Y 4.2, H 3.66
